Reference: paper doi:10.1101/2020.03.15.992883 (2020)

Target: SARS-CoV-2 S receptor-binding domain (RBD) with C-terminal His6 tag (SARS-CoV-2, glycan N343)
Assay: BLI

B1: CR3022 IgG (human IgG1, kappa) (antibody, V domains shown)
VH: EVQLVQSGTEVKKPGESLKISCKGSGYGFITYWIGWVRQMPGKGLEWMGIIYPGDSETRYSPSFQGQVTISADKSINTAYLQWSSLKASDTAIYYCAGGSGISTPMDVWGQGTTVTVSS
VL: not shown
Q: Which Kd does the source give for B1 here?
A: The Kd was 12.4 nM.
